Laboratory results: FireProtDB (doi:10.1016/s0014-5793(99)00158-1)

B1: Ribonuclease wild type, P00648 (protein)
chain: MMKMEGIALKKRLSWISVCLLVLVSAAGMLFSTAAKTETSSHKAHTEAQVINTFDGVADYLQTYHKLPDNYITKSEAQALGWVASKGNLADVAPGKSIGGDIFSNREGKLPGKSGRTWREADINYTSGFRNSDRILYSSDWLIYKTTDHYQTFTKIR
B2: Ribonuclease wild type, P00649 (protein)
chain: MKKISSVFTMFALIAAILFSGFIPQQAYAETPLTQTATNETATIQLTSDVHTLAVINTFDGVADYLIRYKRLPDNYITKSQASALGWVASKGNLAEVAPGKSIGGDVFSNREGRLPSASGRTWREADINYVSGFRNADRLVYSSDWLIYKTTDHYATFTRIR
B3: Barstar wild type, P11540 (protein)
chain: MKKAVINGEQIRSISDLHQTLKKELALPEYYGENLDALWDCLTGWVEYPLVLEWRQFEQSKQLTENGAESVLQVFREAKAEGCDITIILS

Conditions: Bacillus amyloliquefaciens; pH 6.2; Thermal; DSC; Na-acetate 10 mM; NaCl 0.05 M; reversible: yes; whole UniProt chain shown
In the case of B1, the Tm is reported as 54.5 °C, the “unfolding enthalpy (calorimetric)” value is reported as 129 kcal/mol and the “unfolding enthalpy (van 't Hoff)” value is reported as 130 kcal/mol.
For B3, the Tm was 73.3 °C, the “unfolding enthalpy (calorimetric)” value was 53 kcal/mol and the “unfolding enthalpy (van 't Hoff)” value was 76 kcal/mol.

Same assay, conditions: Bacillus intermedius; pH 6.2; Thermal; DSC; Na-acetate 10 mM; NaCl 0.05 M; reversible: yes; whole UniProt chain shown
For B2, the Tm was 56.5 °C, the “unfolding enthalpy (calorimetric)” value was 124 kcal/mol and the “unfolding enthalpy (van 't Hoff)” value was 126 kcal/mol.
